{
  "source": "patent US20120277286A1",
  "about": "“COMPOSITIONS AND METHODS FOR THE TREATMENT OR PREVENTION OF MITOCHONDRIAL DISEASES” (The Government of the USA, as represented by the Secretary, …, priority 2009, published 2012)",
  "tested_on": "HeLa cells",
  "assay": "Parkin colocalization with mitochondria scored by confocal microscopy",
  "assay_type": "cell-based",
  "conditions": "for effect on CCCP-induced Parkin recruitment to mitochondria: HeLa cells expressing YFP-Parkin, added together with CCCP; for spontaneous translocation of mutant YFP-Parkin to mitochondria: without CCCP; for recruitment of mutant YFP-Parkin to depolarized mitochondria: CCCP 1 hr",
  "experimental": "Cultured cells seeded in borosilicate chamber slides (Thermo Fisher Scientific) were transfected or cotransfected with YFP-Parkin, ECFP-Parkin, mCherry-Parkin, DsRed-Mito (Clontech Laboratories, Inc.), pcDNA3.1 (Invitrogen), vMIA, and/or Drp1K38A constructs using Fugene 6 (Roche). Parkin-myc was a gift from M. Cookson (National Institutes of Health, Bethesda, Md.). Cells were fixed 12-24 hours after transfection with 4% paraformaldehyde in PBS. Cells were stained with following primary antibodies: mouse monoclonal cytochrome c (BD), rabbit polyclonal Tom20 (Santa Cruz Biotechnology, Inc.), mouse monoclonal Parkin PRK8 (Santa Cruz Biotechnology, Inc.), rabbit polyclonal PMP70 (Invitrogen), and/or mouse monoclonal TRAP1 (Abcam); and with the following secondary antibodies: mouse and/or rabbit Alexa 488, 594, and 633 (Invitrogen). For assessment of mitochondrial membrane potential, cells were pulsed with 50 nM Mito-Tracker red (Invitrogen) for 15 min, washed, and incubated for an additional 10 minutes before fixation or imaging. For assessment of cell metabolic potential, cell nuclei were stained with Hoechst 33342 (Invitrogen).\nFixed cells and live cells in the FLIP assay were imaged using an inverted microscope (LSM510 Meta; Carl Zeiss, Inc.) with a 63×/1.4 oil DIC Plan Apo objective at 25° C. and 37° C., respectively. For the FLIP assay, a bleach region of interest (ROI) occupying approximately one eighth of the cell was positioned over a relatively mitochondria-free portion of the cytosol. Cells were alternately bleached (488 nm using a 30-mW argon laser at 75% power and 100% transmission for 150 iterations) and imaged (488 nm at 75% power and 2% transmission) for 10 minutes (—60 cycles over the length of the experiment). Two channel prebleach and postbleach images were obtained with 488 and 594 lasers to assess the position of mitochondria before and after bleaching. Circular ROIs with diameters of ˜1 and 5 μm, respectively, were placed over the mitochondria and cytosol of the target cell, and an ROI of 10 μm was placed over the control cell. Imaging of YFP-Parkin translocation in live HeLa cells was performed on a live cell imager system (UltraView LCI; PerkinElmer) at 35° C. with a 100×/1.45 α-Plan-Fluor objective.\nImage contrast and brightness were adjusted in Photoshop (Adobe). Colocalization was assessed with line scans using MetaMorph (MDS Analytical Technologies). For analysis of mitochondrial membrane potential in cells, mitochondrial voxels in each image (the cytochrome c channel threshold was ≧400 au) were segregated into Parkin-positive (the YFP-Parkin channel threshold was ≧1,100 au) or Parkin-negative subsets, and MitoTracker intensity for each voxel was measured using Volocity software (Improvision). For each cell, the mean MitoTracker intensity per voxel was calculated for the Parkin-positive and Parkin-negative subsets. The difference in mean Mito-Tracker intensity between the Parkin-positive and Parkin-negative subsets was calculated using a paired t test. Western blotting HeLa cells stably expressing YFP-Parkin, HEK293 cells, and rat cortical neurons 2 days in vitro were harvested and fractionated as described previously (Karbowski et al., J. Cell Biol. 178: 71-84, 2007). Samples were run on SDS-PAGE and immunoblotted with the following antibodies: polyclonal rabbit anti-GFP (Invitrogen), mouse monoclonal anti-Parkin (PRK8), and mouse monoclonal anti-Porin 31HL (EMD).\nConfocal microscopy of fixed samples, scoring of Parkin recruitment and Parkininduced mitophagy, and live cell imaging were performed as described previously (Narendra (2008) J Cell Biol 183: 795-803). Experiments in Mfn1/2 null cells were performed as described previously with minor modifications.\nConfocal microscopy of fixed samples, scoring of Parkin recruitment and Parkin-induced mitophagy, and live cell imageing were performed as described previously (Narendra (2008) J Cell Biol 183: 795-803). […]",
  "note": "*1 amine or outer side, *2 acyl side, *3 side chain or, on linkers, in order; H or OH if unused. Where a SMILES comes first, the peptide text is derived from it. Bridges are numbered along the chain shown (N, C = ends). Roman numbers before positions name the chains, in order. [ ]: non-standard residue; d: D form. Actinocin(9to1) = Cc1c2oc3c(C)ccc(C(=O)[*:1])c3nc-2c(C(=O)[*:2])c(N)c1=O; NMeV = CN[C@H](C(=O)O)C(C)C; Sar = CNCC(=O)O",
  "data": [
    {"molecule": "CC[C@H]1/C=C/C=C/C[C@@H](C)[C@H](O)[C@@](C)(O)C(=O)[C@@H](C)[C@H](O)[C@@H](C)C(=O)[C@@H](C)[C@H](O)[C@@H](C)/C=C/C(=O)O[C@@H]2[C@H](C)[C@H](CC1)O[C@]1(CC[C@H](C)[C@H](C[C@@H](C)O)O1)[C@H]2C", "note": "[oligomycin, reference compound]", "values": [
      {"measurement": "effect on CCCP-induced Parkin recruitment to mitochondria", "result": "not inhibited"},
      {"measurement": "YFP-Parkin colocalization with mitochondria, % of cells", "setting": "HeLa cells, 10 μM CCCP+10 μM oligomycin, 1 hour", "result": "77.35±7.64", "unit": "%"}
    ]},
    {"molecule": "CC(=O)N[C@@H](CS)C(=O)O", "note": "[N-acetyl-cysteine, reference compound]", "values": [
      {"measurement": "effect on CCCP-induced Parkin recruitment to mitochondria", "result": "not blocked"}
    ]},
    {"molecule": "Cc1c2oc3c(C)ccc(C(=O)N[C@@H]4C(=O)N[C@H](C(C)C)C(=O)N5CCC[C@H]5C(=O)N(C)CC(=O)N(C)[C@@H](C(C)C)C(=O)O[C@@H]4C)c3nc-2c(C(=O)N[C@@H]2C(=O)N[C@H](C(C)C)C(=O)N3CCC[C@H]3C(=O)N(C)CC(=O)N(C)[C@@H](C(C)C)C(=O)O[C@@H]2C)c(N)c1=O", "note": "[actinomycin D, reference compound] (I: T[dV]P[Sar][NMeV] / II: T[dV]P[Sar][NMeV]; ester I:1-I:C, II:1-II:C; linker I:N-II:N via Actinocin(9to1))", "values": [
      {"measurement": "effect on CCCP-induced Parkin recruitment to mitochondria", "result": "modest effect"}
    ]},
    {"molecule": "PINK1-YFP: YFP fused to PINK1 (protein, UniProt Q9BXM7 78-581, looked up, YFP fusion) Serine/threonine-protein …: AARLQRQFVVRAWGCAGPCGRAVFLAFGLGLGLIEEKQAESRRAVSACQEIQAIFTQKSKPGPDPLDTRRLQGFRLEEYLIGQSIGKGCSAAVYEATMPTLPQNLEVTKSTGLLPGRGPGTSAPGEGQERAPGAPAFPLAIKMMWNISAGSSSEAILNTMSQELVPASRVALAGEYGAVTYRKSKRGPKQLAPHPNIIRVLRAFTSSVPLLPGALVDYPDVLPSRLHPEGLGHGRTLFLVMKNYPCTLRQYLCVNTPSPRLAAMMLLQLLEGVDHLVQQGIAHRDLKSDNILVELDPDGCPWLVIADFGCCLADESIGLQLPFSSWYVDRGGNGCLMAPEVSTARPGPRAVIDYSKADAWAVGAIAYEIFGLVNPFYGQGKAHLESRSYQEAQLPALPESVPPDVRQLVRALLQREASKRPSARVAANVLHLSLWGEHILALKNLKLDKMVGWLLQQSAATLLANRLTEKCCVETKMKMLFLANLECETLCQAALLLCSWRAAL", "values": [
      {"measurement": "cells with mCherry-Parkin recruited to mitochondria", "setting": "HeLa, co-expression, absence of CCCP", "result": "57.9±1.8", "unit": "%"}
    ]},
    {"molecule": "T175E: phosphomimetic YFP-Parkin mutant (protein, UniProt O60260 1-465, looked up, variant T175E, YFP fusion, phosphomimetic YFP-Parkin mutant) E3 ubiquitin-protein ligase …: MIVFVRFNSSHGFPVEVDSDTSIFQLKEVVAKRQGVPADQLRVIFAGKELRNDWTVQNCDLDQQSIVHIVQRPWRKGQEMNATGGDDPRNAAGGCEREPQSLTRVDLSSSVLPGDSVGLAVILHTDSRKDSPPAGSPAGRSIYNSFYVYCKGPCQRVQPGKLRVQCSTCRQATLELTQGPSCWDDVLIPNRMSGECQSPHCPGTSAEFFFKCGAHPTSDKETSVALHLIATNSRNITCITCTDVRSPVLVFQCNSRHVICLDCFHLYCVTRLNDRQFVHDPQLGYSLPCVAGCPNSLIKELHHFRILGEEQYNRYQQYGAEECVLQMGGVLCPRPGCGAGLLPEPDQRKVTCEGGNGLGCGFAFCRECKEAYHEGECSAVFEASGTTTQAYRVDERAAEQARWEAASKETIKKTTKPCPRCHVPVEKNGGCMHMKCPQPQCRLEWCWNCGCEWNRVCMGDHWFDV", "values": [
      {"measurement": "spontaneous translocation of mutant YFP-Parkin to mitochondria", "setting": "HeLa", "result": "did not translocate to mitochondria spontaneously"}
    ]},
    {"molecule": "T217E: phosphomimetic YFP-Parkin mutant (protein, UniProt O60260 1-465, looked up, variant T217E, YFP fusion, phosphomimetic YFP-Parkin mutant) E3 ubiquitin-protein ligase …: MIVFVRFNSSHGFPVEVDSDTSIFQLKEVVAKRQGVPADQLRVIFAGKELRNDWTVQNCDLDQQSIVHIVQRPWRKGQEMNATGGDDPRNAAGGCEREPQSLTRVDLSSSVLPGDSVGLAVILHTDSRKDSPPAGSPAGRSIYNSFYVYCKGPCQRVQPGKLRVQCSTCRQATLTLTQGPSCWDDVLIPNRMSGECQSPHCPGTSAEFFFKCGAHPESDKETSVALHLIATNSRNITCITCTDVRSPVLVFQCNSRHVICLDCFHLYCVTRLNDRQFVHDPQLGYSLPCVAGCPNSLIKELHHFRILGEEQYNRYQQYGAEECVLQMGGVLCPRPGCGAGLLPEPDQRKVTCEGGNGLGCGFAFCRECKEAYHEGECSAVFEASGTTTQAYRVDERAAEQARWEAASKETIKKTTKPCPRCHVPVEKNGGCMHMKCPQPQCRLEWCWNCGCEWNRVCMGDHWFDV", "values": [
      {"measurement": "spontaneous translocation of mutant YFP-Parkin to mitochondria", "setting": "HeLa", "result": "did not translocate to mitochondria spontaneously"}
    ]},
    {"molecule": "T175, 217E: double phosphomimetic YFP-Parkin mutant (protein, UniProt O60260 1-465, looked up, variant T175E T217E, YFP fusion, double phosphomimetic YFP-Parkin mutant) E3 ubiquitin-protein ligase …: MIVFVRFNSSHGFPVEVDSDTSIFQLKEVVAKRQGVPADQLRVIFAGKELRNDWTVQNCDLDQQSIVHIVQRPWRKGQEMNATGGDDPRNAAGGCEREPQSLTRVDLSSSVLPGDSVGLAVILHTDSRKDSPPAGSPAGRSIYNSFYVYCKGPCQRVQPGKLRVQCSTCRQATLELTQGPSCWDDVLIPNRMSGECQSPHCPGTSAEFFFKCGAHPESDKETSVALHLIATNSRNITCITCTDVRSPVLVFQCNSRHVICLDCFHLYCVTRLNDRQFVHDPQLGYSLPCVAGCPNSLIKELHHFRILGEEQYNRYQQYGAEECVLQMGGVLCPRPGCGAGLLPEPDQRKVTCEGGNGLGCGFAFCRECKEAYHEGECSAVFEASGTTTQAYRVDERAAEQARWEAASKETIKKTTKPCPRCHVPVEKNGGCMHMKCPQPQCRLEWCWNCGCEWNRVCMGDHWFDV", "values": [
      {"measurement": "spontaneous translocation of mutant YFP-Parkin to mitochondria", "setting": "HeLa", "result": "did not translocate to mitochondria spontaneously"}
    ]},
    {"molecule": "C212Y: YFP-Parkin patient mutation in conserved RING-like region (protein, UniProt O60260 1-465, looked up, variant C212Y, N-terminal YFP fusion, YFP-Parkin patient mutation in conserved RING-like region) E3 ubiquitin-protein ligase …: MIVFVRFNSSHGFPVEVDSDTSIFQLKEVVAKRQGVPADQLRVIFAGKELRNDWTVQNCDLDQQSIVHIVQRPWRKGQEMNATGGDDPRNAAGGCEREPQSLTRVDLSSSVLPGDSVGLAVILHTDSRKDSPPAGSPAGRSIYNSFYVYCKGPCQRVQPGKLRVQCSTCRQATLTLTQGPSCWDDVLIPNRMSGECQSPHCPGTSAEFFFKYGAHPTSDKETSVALHLIATNSRNITCITCTDVRSPVLVFQCNSRHVICLDCFHLYCVTRLNDRQFVHDPQLGYSLPCVAGCPNSLIKELHHFRILGEEQYNRYQQYGAEECVLQMGGVLCPRPGCGAGLLPEPDQRKVTCEGGNGLGCGFAFCRECKEAYHEGECSAVFEASGTTTQAYRVDERAAEQARWEAASKETIKKTTKPCPRCHVPVEKNGGCMHMKCPQPQCRLEWCWNCGCEWNRVCMGDHWFDV", "values": [
      {"measurement": "recruitment of mutant YFP-Parkin to depolarized mitochondria", "setting": "HeLa", "result": "blocked"}
    ]},
    {"molecule": "I44A: YFP-Parkin with engineered UBL mutation (protein, UniProt O60260 1-465, looked up, variant I44A, YFP fusion, YFP-Parkin with engineered UBL mutation) E3 ubiquitin-protein ligase …: MIVFVRFNSSHGFPVEVDSDTSIFQLKEVVAKRQGVPADQLRVAFAGKELRNDWTVQNCDLDQQSIVHIVQRPWRKGQEMNATGGDDPRNAAGGCEREPQSLTRVDLSSSVLPGDSVGLAVILHTDSRKDSPPAGSPAGRSIYNSFYVYCKGPCQRVQPGKLRVQCSTCRQATLTLTQGPSCWDDVLIPNRMSGECQSPHCPGTSAEFFFKCGAHPTSDKETSVALHLIATNSRNITCITCTDVRSPVLVFQCNSRHVICLDCFHLYCVTRLNDRQFVHDPQLGYSLPCVAGCPNSLIKELHHFRILGEEQYNRYQQYGAEECVLQMGGVLCPRPGCGAGLLPEPDQRKVTCEGGNGLGCGFAFCRECKEAYHEGECSAVFEASGTTTQAYRVDERAAEQARWEAASKETIKKTTKPCPRCHVPVEKNGGCMHMKCPQPQCRLEWCWNCGCEWNRVCMGDHWFDV", "values": [
      {"measurement": "recruitment of mutant YFP-Parkin to depolarized mitochondria", "setting": "HeLa", "result": "moderate deficit"}
    ]}
  ]
}
